From US8025878 (BIOARCTIC NEUROSCIENCE, dated 2011) come the findings set out here.

Sequences and labels used below:
B1: Aβ1-16 (peptide, UniProt P05067 672-687, looked up)
peptide: DAEFRHDSGYEVHHQK
notes: domain: Aβ1-16; also called N-terminal part of the Aβ peptide; Aβ1-16 peptide
B2: mouse monoclonal antibody 158 (mAb158) (antibody, V domains shown)
VH: DVQLVESGGGLVQPGGSRKLSCAASGFTFSSFGMHWVRQAPEKGLEWVAYISSGSSTIYYGDTVKGRFTISRDNPKNTLFLQMTSLRSEDTAMYYCAREGGYYYGRSYYTMDYWGQGTSVTVSS
VL: DVLMTQTPLSLPVSLGDQASISCRSSQSIVHSNGNTYLEWYLQKPGQSPKLLIYKVSNRFSGVPDRFSGSGSGTDFTLKISRVEAEDLGIYYCFQGSHVPPTFGGGTKLEIK
notes: Mouse hybridoma IgG with a kappa light chain; In the sandwich ELISA the detecting copy was biotinylated; also called BA9

For test [1], the target named is B2. As to the kind of experiment: mAb158 sandwich ELISA, Aβ1-16 competing with 50 pM Aβ protofibrils. An excerpt: (§1) A large excess of monomeric Aβ, holoAPP and APP-fragments, naturally occurring in biological samples, could interfere with the Aβ protofibril analysis by occupying binding sites of the capture antibody coat, thus inhibiting the protofibrils from binding. This problem was investigated by adding an increasing excess of Aβ1-16 to a fixed concentration of Aβ protofibrils (50 pM, expressed as monomer units) and analyzing it with both the mAb158 ELISA and a 6E10-6E10 sandwich ELISA (FIG. 6C). […] Moreover, when synthetic Aβ protofibrils was added to mock HEK cell culture media or non-transgenic mouse brain homogenates, 90% of the signal was recovered (data not shown).
Background: In an ELISA, binding on a coated surface is turned into a signal by an enzyme label.

The next test has as its target 6E10. As to the kind of experiment: 6E10-6E10 sandwich ELISA, Aβ1-16 competing with 50 pM Aβ protofibrils.
Source text: as §1

The target in a further test is T1, medin fibrils (UniProt Q08431 268-317, not fully specified).
T1 construct: Fibrils immobilized on a nitrocellulose membrane
T1 peptide (looked up): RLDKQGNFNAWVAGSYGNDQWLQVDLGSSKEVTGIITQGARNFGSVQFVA
As to the kind of experiment: dot blot, fibrils on nitrocellulose membrane. An excerpt:
(§2) Due to technical difficulties in generating protofibrils from other amyloidogenic proteins than Aβ, mAb158 was instead tested against different amyloid fibrils. The dot blot assay was used for these experiments since inhibition ELISA, where the antibody-antigen reactions take place in solution, is not suitable for insoluble antigens like fibrils. The dot blot assay is however not suitable for evaluation of antibody specificity for various Aβ forms, i.e. for measuring differences in selectivity for profibrils and fibrils. […] As positive controls the antibodies 6E10 (Aβ), pAb179 (medin), pAbA110 (IAPP) and mAb211 (α-synuclein) were used (FIG. 5B). Representative blots from repeated experiments (n=3).

In test [2] the target is T2, islet amyloid polypeptide (IAPP) fibrils (UniProt P10997 34-70, not fully specified).
T2 construct: Fibrils immobilized on a nitrocellulose membrane
T2 peptide (looked up): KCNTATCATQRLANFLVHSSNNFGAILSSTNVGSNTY
As to the kind of experiment: dot blot, fibrils on nitrocellulose membrane.
Source text: as §2

The target of a further test is α-synuclein fibrils (UniProt P37840 1-140). As to the kind of experiment: dot blot, fibrils on nitrocellulose membrane.
Source text: as §2

The target in test [3] is T3, C-terminal fragment of Aβ (UniProt P05067 688-711).
T3 construct: domain: C-terminal fragment of Aβ; also called Aβ fragment 17-40
T3 peptide (looked up): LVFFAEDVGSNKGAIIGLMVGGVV
As to the kind of experiment: competitive ELISA, plate coated with Aβ protofibrils. Here is the method: (§3) From competitive ELISA experiments, the antibody has a strong affinity for human Aβ42 wild-type protofibrils, but only very weak affinity for the N-terminal part of the Aβ peptide and Aβ monomers.
In FIG. 2B a competitive ELISA is shown. An ELISA plate was coated with human Aβ protofibrils. […] The incubation mix was added to the microtiter plate wells and free antibody was allowed to bind to immobilized protofibrils in the wells.

For another test, the target named is T4, AβArc protofibrils (human, UniProt P05067 672-713, limits assumed).
T4 construct: Used for a standard curve in the mAb158 sandwich ELISA; also called Arctic Aβ protofibrils
T4 sequence (P05067 other isoform, or with tags, fused parts or gaps limits assumed): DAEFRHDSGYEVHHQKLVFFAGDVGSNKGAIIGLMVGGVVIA
As to the kind of experiment: sandwich ELISA, mAb158 as both capturing and detecting antibody. An excerpt:
Establishment of an Aβ protofibril specific sandwich ELISA. To enable measurements of Aβ protofibrils in biological samples a sandwich ELISA with mAb158 as both capturing and detecting antibody was established. This assay measures Aβ protofibrils with a detection limit of 1 pM and with a linear range up to 250 pM (FIG. 6A, lines indicate linear regression of the standard curves). Due to uncertainties concerning the size of the Aβ protofibrils used in the standard curve, the concentration 1 pM is based on the molecular weight of one Aβ monomer (4514 g/mol), Though, since the molecular weight of a protofibril has been estimated to be at least 100 kDa, the limit of detection calculated as molar Aβ protofibrils could be as low as 50 fM. A standard curve of AβArc protofibrils gave a lower signal than wild type Aβ protofibrils, possibly due to differences in Aβ protofibril size (FIGS. 6A, 6B). Titrated synthetic LMW-Aβ (Low Molecular Weight Aβ). By the term "Low Molecular Weight Aβ", it is meant monomers, dimers and trimers of Aβ having a molecular weight of approximately 4-12 kDa. Aβ protofibrils and Aβ1-16 were used to validate the conformation specificity of the ELISA (FIG. 6B), where the hydrophilic Aβ1-16 peptide was used since it is not expected to aggregate. […]

Another test concerns the target T5, Aβ fibrils (UniProt P05067 672-713).
T5 construct: Insoluble fibrillar aggregate
As to the kind of experiment: sandwich ELISA, mAb158 as capture and biotinylated mAb158 as detector. Here is the method: as §3
In FIG. 2A a sandwich ELISA is shown. […] Colour development was measured according to the procedure recommended by the manufacturer.

The test “Aβ1-16” deals with B1. As to the kind of experiment: mAb158 sandwich ELISA with excess Aβ1-16 added to 50 pM Aβ protofibrils.
Source text: as §1

For test [4], the target named is T6, human Aβ42 wild-type protofibrils (human, UniProt P05067 672-713).
T6 construct: domain: Aβ42; Soluble oligomeric aggregate of many Aβ42 peptides; also called Aβ protofibrils; human wild-type Aβ protofibrils
T6 sequence (P05067 672-713 limits assumed): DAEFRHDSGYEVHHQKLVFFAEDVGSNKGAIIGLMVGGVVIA
As to the kind of experiment: competitive ELISA with monomeric and protofibrillar Aβ.

Sequence of 6E10 (VH, as listed by the source, chain 1 of 2): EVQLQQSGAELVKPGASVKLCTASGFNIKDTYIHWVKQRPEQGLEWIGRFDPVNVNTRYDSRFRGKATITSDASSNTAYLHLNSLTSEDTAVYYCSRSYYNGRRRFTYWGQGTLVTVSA
Sequence of 6E10 (VL, as listed by the source, chain 2 of 2): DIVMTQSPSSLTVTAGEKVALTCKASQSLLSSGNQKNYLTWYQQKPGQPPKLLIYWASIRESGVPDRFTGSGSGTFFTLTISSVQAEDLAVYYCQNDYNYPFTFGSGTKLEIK
T5 sequence (P05067 672-713): as the sequence (P05067 672-713 limits assumed) above

Take B1: the “molar excess of Aβ1-16 over Aβ protofibrils that did not disturb the signal” value in [1] is 500000 fold. Moreover, in the test with 6E10, the “molar excess of Aβ1-16 over Aβ protofibrils enough to decrease the signal” value is 500 fold.

In the case of B2, the binding result is “no binding” in the test with medin fibrils; “no binding” in test [2]; “no binding” with α-synuclein fibrils; “no binding” in test [3]; “binds” with AβArc protofibrils; “binds” in the test with Aβ1-16. Further, in the test with Aβ fibrils, the “fold less cross-reactivity than with Aβ protofibrils” value is below 40 fold.

B3: humanized 158 antibody (BAN2401) (antibody, V domains shown)
VH: EVQLVESGGGLVQPGGSLRLSCSASGFTFSSFGMHWVRQAPGKGLEWVAYISSGSSTIYYGDTVKGRFTISRDNAKNSLFLQMSSLRAEDTAVYYCAREGGYYYGRSYYTMDYWGQGTTVTVS
VL: DVVMTQSPLSLPVTPGAPASISCRSSQSIVHSNGNTYLEWYLQKPGQSPKLLIYKVSNRFSGVPDRFSGSGSGTDFTLRISRVEAEDVGIYYCFQGSHVPPTFGPGTKLEIK
As to B3, the binding result in test [4] was “binds”.
